Laboratory results: a protein production outcome set (Wang et al. 2014)

Test: label from the status in PepcDB records

| Sequence | protein production |
| --- | --- |
| MSEYLHIIIWFFLIEALSFISVPFIRSAGNRLADGGYSVSRALGIMLVTYLSWIFSYILGFSFTAVLIAFFLLCSVSIFLYRKQKFFPGRKVLVVNELVFASGFFFFLLVRTYLPEIYRHEKFMDFAFLNAVIRASSFPPQDPWFAGGLMDFYYYFGYLSVAVFGKLSAVKPSILFNLAVALTFALSLNAFFGMGYNLTRGKIRYGILTAVFGMLLGNLQGLIEFVSVYIRHEQALGGYYWSSSRVIPFTINEFPYFSFIHGDLHSHMLAIPFQLLVLAFLLNMHFRKNEDSIFENSLALLMFSMSLGFLFPFNSWDFPVYFGLAFLVIFAFYCGDYVHNRNLFAAVAKFSNSMIFISIFSFLPYLLFYLDFNPQAAGGFDFVLPELRTETDRFLILFGLFLFLVFSFLITRLDSRRKIVFFVLLAGVSALLSKAWSIPLLAVLLPVFVFSLLLFLKDIPERSASGFVYLLISAASFIALLCEVIFLDDPISGEFARMNTVFKFYMHLWIFLAISAAYSYYDLNSHYAARSGNRKTLKQFVKKGWSVILVILIICCAIFPAVSTVTRIKEMNAEPSLDGMEYMRELDRGDYNAIRWMQANIKGSPVILETSEDDSSYSYACRVSSNTGIPAVIGWARHERFWGRDHEEVKKRIGDVSLIYSTGSEEEAIELIEKYNVTYVYIGTLERQVYDVNTKKFENKAYFEPVYEGSATIYKLKKKP | failed |
| MRLLVAFAVIYFISISPVCAENTASTINIPTPAIESPLASKSLLLDISLIGQEKLVTVGQHGHILLSNDGKKWQQANVPVQVTLTNVFFLNEQLGWAVGHDATILHSQDGGLNWQVQQYLPLLEKPLFDIYFKNPQQGIAVGAYGQVFRTNDGGSTWQNEFHQEILLADDVEYLNELKAEDEAAYLDEITFILPHFNRLVQDGGSLFLLGETGLLAKSDDFGLTWQQFDNFYQGSFFSLARTKTGNVLVAGLRGHVFRSLNHGSQWDEVPTNTTALLNDIVFANDERIFILGNNGMLLISTDDGESFSKIPQQDGKTLIAGVWFKGQLIAVSDVGIKVVDLSQE | failed |
| MAEPGGHEGPASTQRAKVCETHTAMVFFVEDRVYKRKKPVDLGFLDYTTRSSRRAVCEREIELNRRFAPDVYLGLGELRTPGEQEAEPLVVMRRMPDDRRLSHLVRTGAPVADDLRAVARHLAAWHSAAPRGPAIAEQGTRDALAARWEASFTQVDVLAAKGPTRDEAGEVERLVRRYLAGRKPLFGLRIEQGRVLDGHGDLLADDVFCLGDGPRILDCLEFDDALRYVDGLDDAAFLAMDLESLGAPESAAFFLAQYGEYSGDPAPPSLWHHYVAYRAFVRAKVSLIQARQGAPGAHATARRLVRMALRHLRASAVGLTLVAGLPGTGKSTLSGALADRLGAVLLSSDRLRKEMAGLSPQQTASADYGEGLYTPEWTARTYAELLDRAAALLALGESVVLDATWIDSAQREAARHTAESAGADLVALHCHVPDDVTAARLSTRAPGASDADLGVAEAMAAEEQPWSGAVGVDTGGSLEAAVGQALAAVRPWGSDQAKVFRRPYMEPDLEHHHHHH | failed |
| MLVSEMHGEVEAVKVGTEVQGRVLHWVYLYYYRNLLFDAGCPNTAQEVFEHFKGREIKAVLITHYHEDHIGAVNLFKEITDVYVPEESLEILRNPPDIPKYRKIGWGQPEKIEGVKVAKEVMKFDDVEVRMIKTPGHSFDHVSYLVDDKLFCGDLVINTAQMVCMREENLLKTIESIEKVLKYDFNYAYTGVGVASRDEVVEYLNYLKGLKEKAEMLYAEGKTIDEIVAACFPNPSQKAILMEFVSEKEWARENMVKSLLGLPRE | failed |
| MSDIRMRADIAADGLTDRPPDRLADEPAEELSHGLLEGLSKEPADELADSPFLLDEPPDYFEDFLLFIFTLMKTTSCLGVAKTTHKLFLCVEPTKEKVAFSDKATSFSAPIEILLFNLDPPSIQGYLRRPLSLKDLHISSARIIDAPLLKPNG | failed |
| DCYKNFVAKKCAGCKNPITGFGKGSSVVAYEGQSWHDYCFHCKKCSVNLANKRFVFHQEQVYCPDCAKKL | not failed |
| MVAKDYPFYLTVKRANCSLEAPLGSGVAKDEEPSNKRVKPLSRVTSLANLIPPVKTTPLKRFSQTLQRSISFRSESRPDILAPRAWSRNATSSSTKRRDSKLWSETFDVCVNQVLTAKEIKRQEAIFELSQGEEDLIEDLKLAKKAYHDPMLKLSIMTEQELNQIFGTLDSLIPLHEELLSQLRDVRKPDGSTEHVGPILVGWLPCLSSYDSYCSNQVAAKALLDHKKQDHRVQDFLQRCLESPFSRKLDLWNFLDIPRSRLVKYPLLLREILRHTPNDNPDQQHLEEAINIIQGIVAEINTKTGESECRYYKERLLYLEEGQKDSLIDSSRVLCCHGELKNNRGVKLHVFLFQEVLVITRAVTHNEQLCYQLYRQPIPVKDLTLEDLQDGEVRLGGSLRGAFSNNERVKNFFRVSFKNGSQSQTHSLQANDTFNKQQWLNCIRQAKETVLSAAGQAGLLDSEGLVQGPGTENREPQGETKLEQMDQSDSESDCSMDTSEVSLECERMEQTDASCANSRPEESV | not failed |
| MDRATEPVLFFFMAFFWALNYVMVKFAYAYDLSSSILLMRVLYASIFSSLIFIRQIKLPKSPLEHLKVFILANLNITGFFSLWFFGETGVSAAVTSIVIYSYPILATAFSYLFLGDRFGAMKTLGLILGFAGLVIIFIRSINVENLVDLIMLLVAAISWAIGTVFYRKYLLGYDSAGLNTLQLLYALPVVLLISLFTGGINIGLLQLKFNLIMIYMGSFGTAIAYFIYLYLYRKYKVSSISAYFFLVPAISVVLAAVLLKEPISALTIAGFAVMSAGIFLSGSFK | failed |
| MEVDLSGFNIDAPRWDQCTFLGRVKHFFNITDPRTVFVSEQELDWAKSVVEKSRMGLMPPGTQVEQLLYAKKLYDSAFHPDTGEKMNVIGRMSFQVPGGMIITGFMLQFYRTMPAVVFWQWVNQSFNALVNYTNRNAVSPTSVR | failed |
| MITAFVLIRPRGNRVQALGEAIAELPQVAEVYSVTGPYDLVALVRLKDVEELDDVVTQGILSLEGVERTETLLAFRAYPRRLLDQGFALGQG | not failed |
| MRFDKSCQARAPSAPDGPGVLRFTIFRGEAKKRKAAVSVAGRFCAVACFLRLGSAGLSRCPCYFSPMLERRIVVAVPARDEGAGVVATLRALAAQEGAPPFQTLLLVNNSRDDTAAQARAFARQMPGFRLQVEEVALPPREANVVGARRAALDWAAALAGSDGIIVSTDADTQAAPDWLAALVQPLCANRAVQASAGRILLRATERAALPEPVRRTYLLDTGYRDAASRLRARVLPDPFDPAPRHWQHFGASLALRVSAYRAVGGVPQVPCLEDLALVRALARADLPLRHTPRARVYTSARLCGRVPVGLSTQLGEWARGPQHWRVPGGAEVLRLAQAEAALRRSWQARRLAPKLTAQWLTSEAALGAALHAPRWGLALERAHEVREAEGRWQRTFAPIPVWDALQEVRALLSTLPEERPLTAEVCAP | failed |
| MNREEVLKQLQSIFRDILKKDNVCIDESSTSKDVDGWDSLTHMQIIAQIEKHFGVRFNFREVIKFKNVGDLCSALLTKMELEHHHHHH | not failed |
| MNDRACVSARTRWPLVSVLIPAFNHARFVQRCLDSVLEDPYPCKEIVIIDDGSRDATGEKISQWISDHGHRLPVHFVQRENRGVAATLNELALRARGEYLRLGASDDYLLPGGLDAQVRYLRGHPQKLAVIGDACVVDAHGQLMHASAMRDLHRVDKDLYRSESGIRHAVIRQWAVSGAVALLRRSALDARSRWDESLRIEDWDFFLRLVAGNALGFIDLPVCAYRLHGNNLSKTADVPARIANLCESRQVALRCAPLFDEPDRMLLHAQARYIAAKVEFLRRRPHRIAMHLAVYAGLSLSARWRPKRVARAAELA | failed |
| MKEVTPRFVELGQVSAIRTEPEIAYRSNQGVTRQRQQTKVFKLVSTYDKVAVKNAIRAAYRQVFERDLEPYIINSEFTALESKLSNNEINVKEFIEGLGTSELYMKEFYAPYPNTKVIEMGTKHFLGRAPLNQKEIQQYNQILASQGLKAFIGAMVNGMEYLQTFGEDTVPYRRFPTLPAANFPNTERLYNKLEHHHHHH | not failed |
| MNFIRIVKFDFKNIIRNPMLLFFNTIFPLILIGSIGFVMKNGYGSFNVTSYDYYGVTMMIFTAFIICITASNTFMEKSVKKGNTRIVYAPVSKAEIYLSKIISTYILGSIFYSIIIVLGKYVLNINYGTRSTIYIIILINMLTLFGCCLGVLFCCIFKSEEGANSVLQIVIMLFIFFGGVFFPVYSLGKIVESISNLSPLKWITECIFRIIYDNDFSIYLPTIGVMLVSSIICIVICQIIFKPEEYV | failed |
| LFSSRDILEVLQDIHMETGETVAIATKNDIYLQYIQIIESVHALRFHVDENAIRPLTMSSNGWMLMSTMNDKAIDNTVRRANTITQKDGIRFEVDDMMARIRQVREQGYASAEHIPFVGGGTICVLLPMTIQGQPVTMGLGGALDRIKQNYDRYLELLLNGVQQLKKSDSFHQPI | not failed |
| MGEVKDLGMADHGGFDLKIGARVVLEDVKLGDSIAVNGTCLTVTEFNAEEFTVGLAPETLRKTSLEELKKGSPVNLERALQPVSRMGGHVVQGHVDGTGVIESMEVEGDSLWVKVKADKGLLKYIVPKGFVAVDGTSLTVVDVFDEESCFNFMMIAYTQQNVVIPTKKIGQKVNLEVDIMGKYVERLLTSGGFSKGN | failed |
| MDPITHGALGAACAQAALGKYDKRIPWQAGALAGMAPDLDVFIRFSQEPLSLEQWHRYLTHSLMFIPIGGLIVALFLLCFSQYRQYWKITIGASLVGYATHCLLDSLTSYGTVLFWPWSDSRISWDIISIIDPVFTLPLLLGTAWSVIYQNQKAVIASLFFCILFLIFNTILHNRAVDGIHQYATTNNFKINHPRALPKLASSTYWRIIAKQQDCLIIAEAKTSLFYPTTIRLIRQALSFNESMIPFALSSGQKSDLATFHWFTDGFLIVANKNPLILADARYTIDDNPIFSLWGIEILPGQEHINKLSLPKINEYCESPDSERYKEDGLN | failed |
| SSNQTPYIGSKISLISKLDIRYEGILYTVDTNDSTIALAKVRSFGTEKRPTANPVAARDDVYEYIIFKASDIKDLIVCDTPKMANIGGGLPYDPAIISVSSRSAPASDGAPAASAGSSRAGTPSRNSPLGQIIQNQRPGRGGYQQNFQANRGYNNYRGGFAGGYNNQRGHNNYGVPRVNHREKLKFESDFDFEKANEKFQEVLVDNLEKLNIEDKAEPEVEEKKDAAFYDKKTSFFDNISCESLEKAEGKTGRPDWKKERETNQETFGHNAVRSLNYRRGFGGRGRGGNRGYGGYNNGYQHQHQHRGGYNGGYRQNNGGYRRGGYAPRDNQGNTAAAAEQ | failed |
| DDAGKRHVYVKEIATGTVKRAIEEKDELIKGYGWINDERLFFVMDKGGNENYHLFASNIDGSNTRDLTPFDGVKASILNMLKEQKDYMIISMNKNNPQIFEPYKLNVVTGELTQLYENKDAANPIQGYEFDKDGELRGYSRLVNGIESELYYKDLATGEFRLLKKTHWDDTFGVIAFNYASKNKDEAYVLTNLDSDKTRIVLYDLKQNKIIREIFANEDYDVSGLHLSRKRNYEIDLMAYEGEKSVVVPVSATYKELHKLMEKEFKGKEFSVVDYDDDETILLIAVQSDKLYGTYYQFDTRTKKFTLLYDLMPQLKEEDMAEMRPIKFKSRDGLTIHGYITLPKAALEGKKVPLIVNPHGGPQGIRDSWGFNPETQLFASRGYATLQVNFRISGGYGKEFLRAGFKQIGRKAMDDVEDGVRYAISQGWVDPDRIAIYGASHGGYATLMGLVKTPDLYACGVDYVGVSNIYTFFDSFPEYWKPFKEMVKEIWYDLDNPEEAAIAKEVSPFFQIDKINKPLFVVQGANDPRVNINESDQIVTALRARGFEVPYMVKYNEGHGFHREENSMELYRAMLGFFAKHLK | failed |
| MTYCLGVKLKDGLVAIADTRITSGTDTTTAKKLFVHESAHGSLFLMTSGLRSVRDKAITYFKEVLKDEHVVYNQLYEAVNAFGNQLRRVAEEDRKALYAAGFAFNLHTIVGGQLKNDEEPKMFLLYPEGNWIELTQTSPFMIIGNSGYGKPILNRTVKYESTLEEVLKAGFLSFDSTRVSANDVDFPLDVVVYYNNSFKMIEHRFEKKDMEIISTTWDNQLKQALDSVPEEWMNVVFDRKNVLLEHHHHHH | failed |
